Laboratory results taken from patent US20070042946A1 (NATIONAL RESEARCH COUNCIL OF CANADA, published 2007).

B1: FN22 (peptide)
peptide: FNPRPQSHNDGDFEEIPEEYLQ
notes: Tested as recombinant peptide (FN22^(a), released by CNBr from the MFH fusion) and as synthetic peptide; also called FN22^(a) (recombinant preparation)
B2: FD22 (peptide)
peptide: FDPRPQSHNDGDFEEIPEEYLQ
notes: Tested as recombinant peptide (FD22^(a), released by CNBr from the MFH fusion) and as synthetic peptide; also called FD22^(a) (recombinant preparation)

Assays:
human α-thrombin [1] = target: T1, human α-thrombin (human, UniProt P00734 328-622); assay: cell-based or functional assay
bovine α-thrombin = bovine α-thrombin (bovine, UniProt P00735 318-625); assay: cell-based or functional assay
human α-thrombin [2] = target: T1, human α-thrombin; assay: amidolytic assay, Tos-Gly-Pro-Arg-pNA hydrolysis by human α-thrombin, 25° C.; synthetic peptide
Experimental: (§1) Kinetics of thrombin-catalyzed hydrolysis of the chromogenic substrate Tos-Gly-Pro-Arg-p-nitroanilide were followed by absorbance at 405 nm on a Spectramax plate reader thermostated at either 25° C. or 37° C. according to the method of Maragnore et al (supra). The concentrations of Tos-Gly-Pro-Arg-p-nitroanilide ranged from 2 to 400 μM. […] The KM and Vₘₐₓ values were calculated accordingly and kcat values were determined by dividing Vₘₐₓ by the enzyme (thrombin) concentration. The inhibition assays were performed in the clotting buffer with a certain fixed concentration of α-thrombin (˜0.3 nM) such that linear progress curves were achieved within at least 15 min in the absence of the inhibition. The total volume of the solution was fixed at 200 μl. […] Kinetics data from initial rate experiments were used to construct Lineweaver-Burke plot; i.e. the relationship of (substrate concentration)⁻¹ versus (initial velocity)⁻¹ which. were analysed by linear regression with MicroCal Origin 4.1 program (MicroCal, MD) or using the GraphPad Prism software. The Kᵢ values of the inhibitors were determined using the equation: Kᵢ=[I]/{(SL₀/SL₁)−1}, where [0098] […] Every Dixon plot contained an array of data corresponding to different substrate concentrations and the Kᵢ values were determined from the intersections. […]

human α-thrombin [3] = target: T1, human α-thrombin; assay: amidolytic assay, Tos-Gly-Pro-Arg-pNA hydrolysis by human α-thrombin, 25° C.; recombinant peptide
Experimental: as §1

human α-thrombin [4] = target: T1, human α-thrombin; assay: amidolytic assay, Tos-Gly-Pro-Arg-pNA hydrolysis by human α-thrombin, 25° C.
Experimental: Kinetics of thrombin-catalyzed hydrolysis of the chromogenic substrate Tos-Gly-Pro-Arg-p-nitroanilide were followed by absorbance at 405 nm on a Spectramax plate reader thermostated at either 25° C. or 37° C. according to the method of Maragnore et al (supra). The concentrations of Tos-Gly-Pro-Arg-p-nitroanilide ranged from 2 to 400 μM. […] The KM and Vₘₐₓ values were calculated accordingly and kcat values were determined by dividing Vₘₐₓ by the enzyme (thrombin) concentration. The inhibition assays were performed in the clotting buffer with a certain fixed concentration of α-thrombin (˜0.3 nM) such that linear progress curves were achieved within at least 15 min in the absence of the inhibition. The total volume of the solution was fixed at 200 μl. Reactions were initiated by addition of the chromogenic substrate to the wells containing thrombin and a certain concentration of the peptide inhibitors premixed for less than 2 min. Alternatively, the substrate was first mixed with the peptide inhibitor and the total volume was adjusted to 120 μL using the clotting buffer. Eighty microliters of human α-thrombin in the clotting buffer (˜0.3 nM final concentration) was added to initiate the reaction. The concentration of the peptides ranged from 0.5 nM to 10 μM. Kinetics data from initial rate experiments were used to construct Lineweaver-Burke plot; i.e. the relationship of (substrate concentration)⁻¹ versus (initial velocity)⁻¹ which. were analysed by linear regression with MicroCal Origin 4.1 program (MicroCal, MD) or using the GraphPad Prism software. The Kᵢ values of the inhibitors were determined using the equation: Kᵢ=[I]/{(SL₀/SL₁)−1}, where [0098] [I] is the inhibitor concentration, [0099] SL₀ is the slope of the reaction in the absence of inhibitors, and [0100] SL₁ is the slope of the reaction in the presence of the inhibitor. Alternatively, Dixon plots of inverse velocity versus the inhibitor concentrations were generated with the Sigmaplot™ software. Every Dixon plot contained an array of data corresponding to different substrate concentrations and the Kᵢ values were determined from the intersections. Following Peptide Cleavage by HPLC

Binder	IC50 (DCT), clotting assay, 37° C. (human α-thrombin [1]) [nM]	Ki (human α-thrombin [4]) [nM]	also measured
FEPRPQDHNDGDFEEIPEEYLQ [FE22-D]	> 125	–	–
FEPRPQSHNDGDFEEIPEEYLQ [FE22]	80	–	–
WDPRPQSRNDGDYEPIPEEYLQ [WD22-SR-YP]	32	–	–
B1	–	–	IC50, clotting assay; recombinant peptide (bovine α-thrombin): 289 nM; IC50 (DCT), clotting assay, 37° C.; recombinant peptide FN22^(a) (human α-thrombin [1]): 150 nM; IC50 (DCT), clotting assay, 37° C.; synthetic peptide (human α-thrombin [1]): 67 nM; Ki (human α-thrombin [2]): 80 nM; Ki (human α-thrombin [3]): 100 nM
WDPRPQRHNDGDFEEIPEEYLQ (Synthetic) [WD22-R]	22	17	–
FDPRPQRHNDGDFEEIPEEYLQ (Synthetic) [FD22-R]	32	45	–
IQPRPQIHNDGDFEEIPEEYLQ [IQ22-I]	39	49	–
B2	–	–	IC50 (DCT), clotting assay, 37° C.; recombinant peptide FD22^(a) (human α-thrombin [1]): 50 nM; IC50 (DCT), clotting assay, 37° C.; synthetic peptide (human α-thrombin [1]): 45 nM; Ki (human α-thrombin [2]): 48 nM; Ki (human α-thrombin [3]): 55 nM
LDPRPQSHNDGDFEEIPEEYLQ (Synthetic) [LD22]	228	260	–
FDPRPQDHNDGDFEEIPEEYLQ (Synthetic) [FD22-D]	53	58	–
FQPRPQMHNDGDFEEIPEEYLQ [FQ22-M]	11	64	–
FNPRPQIHNDGDFEEIPEEYLQ [FN22-I]	45	360	–
FDPRPQKHNDGDFEEIPEEYLQ [FD22-K]	60	–	–
WDPRPQSRNDGDFEPIPEEYLQ [WD22-SR-P]	53	–	–
GSAVPRPQIHNDGDFEEIPEEYLQ [GS-AV22-I]	33	41	–
GSIQPRPQIHNDGDFEEIPEEYLQ [GS-IQ22-I]	10	> 400	–
FHPRPQSHNDGDFEEIPEEYLQ [FH22]	> 150	–	–
FDPRPQHHNDGDFEEIPEEYLQ [FD22-H]	70	–	–
